In PMC8965725 one finds cellular FITC fluorescence of GL261 cells incubated with FITC-labeled NPs, flow cytometry, normalized to cells without treatment (cellular internalization) data, which are given here for one substance.

The target in the experiment is NRP-1 expressed on GL261 cells (mouse (endogenous in GL261)) (UniProt P97333).

As for “RGE fusion protein nanoparticles (RGE peptide-linker-HFn) (designed binder)”, the cellular FITC fluorescence of GL261 cells incubated with FITC-labeled NPs, flow cytometry, normalized to cells without treatment (cellular internalization) was determined as 42%.
